Data reported in the DeepSol protein solubility set.

experiment: soluble on expression in E. coli; label from the status in PepcDB or PDB records

Sequence	soluble on expression in E. coli
GPGSMTEYKKLCAILAQLREEVTSLSCAFEGGEGQDTVALHSLSTSIQKLVTNAQPRLLKILRKATETDPNRQIYNEAMCAAIKQLFDDFCELLSCLFGVPMEEMVLSEGKINFEDSPSISWTEDVHNNYLLHLAQTEAWKKRIATNIADLVLFEEETRTVYFAEERKARETLLQIKRNEKTNILHMLKEREAAKWEAEVRRRNDEHKGLMNASSFYGVQNIATVLLRIPEPFRKLLAGNMAQLVRALRTTPEDPNIRRIRCNNRRVMMDYSHVVFCGECETCRILVAAAEILWYIMGYRVEYSTAPTSSLRTVIENNPPILLPCGRYASEHAIAVIGFEEYSERFFTLHEPDPMQDSDEWMVWYATLEALLARLEDCLV	not soluble
MADAEGDPLQAFWTQVVRLRDLLKFDFYFADSAAFHQNVAEEMSWHADWEQQVRAGRDGIETLMRAKRPLLADAMLRPYFEAYTIVADVLRDAPAEIAEKDLTKLALGVGQQYVAQGRVRNNESVSALLFATARQVAADQGLLEHGPDLMEQRRAFRDELRGILRDLDTVDRYARELFAARERERRTKRDEAVLEHHHHHH	not soluble
MEISNVYVPPRSSSSNHARLMTDFSNIFQTKSKSIISGDVNAHHSAWHSEGSEDTRGRELAELIDLHPDLIIQNEQVHTRADTYSISSPDITICTADLATKCHWSTLYKLGSDHIPMKLKINQAATPKRPKRLVANFKKANWQLFRDHIESRINGYSGPMDAIPMEKFFNKVILEADKKAVPKGSIDPKLKVDPKPLRLLAKEIADRETRNPLDPEIPILTRELATKRAERKNSEWRKKAHDQNAKRKSDVSSFWKLIKGVTKGRQYKGPVAFGDGLPKTGATIANKMAKSLVEAGRTKISHDEELKWRKNVRRNKRISKIAPLQDRITSIELHNMAIKMSPSAAIGPDGIAQIHIRKLPMCGYSFLAYLYNVSLSTNIIPDKWKKANVIMIPKPKKDPAIASSYRPISLLSPIAKLLEKAILKRIKNSIESPAHQHGFKPEHSTTTAVIQVTNDIIGGLNMKNPPERAIMACLDLRAAFDKVPTKKLCNDLMEAQGIEPKIKLWLGNYLHKRLIRTSHDNHWSKWHTLLGGVPQGSVISPNLFTFYLKDMPTQQDTMLISYADDMSIIARDKKIEKAAEKVQLHIDEIAKYLKERGMSISAEKSTVTVFSCDPKEHKTKPDIYWMDDPIPVINAPKLLGITLNTMTGTKDHVGNAIKSMQNKTRVIKSMAGTSWGNDRETMLYTTQALIKPTALYGAPAWTSLLSDTNLEKLEIAYRSALRACVGLTKDTPTDHIYQECRVLPLKEEYKLATQQMYLAAIKSNTHPCRDLKAKGQLERTSKPPRIPPLKLSDSEKLRLDNIPGDKTETQKKNHTKLVADFIRNAPNNRILNKPPPRVNYRDERTLPKETRCELARLRCGHSLLVEKYKARLEERQIKKCLNCGDEEGDVQHLLSCLQTPVPLEELWTSPLTVAAALGLPTKTPFDPGGGH	not soluble
EAGMAAITAATAGNMQSQINYTRSNEKEADRFGIATLAKAGFDVQAMPRFFGRLADEYRYASKPPPMLLTHPLPEDRVADSRQRAQAYPPMRIAPSIDYHLARARIVARYAGIDGQAALGWFERTQKKASADIMPSFDYGRALVHLDNKRLSQAEPILKKLLAQDPGNPFYLDAMTDLYIEKKQPQKAVELLNSALKRNPQNKVLTINYANALLEANQNDQAVRTLQRYTHDNPEDSNGWQLLSKGYHALGRSDEELAARAEILALRANWNKAIQYYSEASKMAELGSLEQARYDARIDQLMIQRDRFMALQ	not soluble
MGHHHHHHENLYFQSHLYFQSHMDVAPLNLGMIAAYYYINYTTIELFSMSLNAKTKVRGLIEIISNAAEYENIPIRHHEDNLLRQLAQKVPHKLNNPKFNDPHVKTNLLLQAHLSRMQLSAELQSDTEEILSKAIRLIQACVDVLSSNGWLSPALAAMELAQMVTQAMWSKDSYLKQLPHFTSEHIKRCTDKGVESVFDIMEMEDEERNALLQLTDSQIADVARFCNRYPNIELSYEVVDKDSIRSGGPVVVLVQLEREEEVTGPVIAPLFPQKREEGWWVVIGDAKSNSLISIKRLTLQQKAKVKLDFVAPATGAHNYTLYFMSDAYMGCDQEYKFSVDVKEAETDSDSD	soluble
SNAMSDSDAMTDPNAVSYSNAIVVLCTAPDEASAQNLAAQVLGEKLAACVTLLPGATSLYYWEGKLEQEYEVQLLFKSNTDHQQALLTYIKQHHPYQTPELLVLPVRDGDKDYLSWLNASLL	soluble
MLRVLVGAVLPAMLLAAPPPINKLALFPDKSAWCEAKNITQIVGHSGCEAKSIQNRACLGQCFSYSVPNTFPQSTESLVHCDSCMPAQSMWEIVTLECPGHEEVPRVDKLVEKILHCSCQACGKEPSHEGLSVYVQGEDGPGSQPGTHPHPHPHPHPGGQTPEPEDPPGAPHTEEEGAED	soluble
MGSDKIHHHHHHMLTQLQCPSCGGRLLSNKEGRNSILCQSCKKEFSAREGVLCFVPDNVFTQLDNIDYDKHYSISDESSQQAFASLKGVLGNRLKNNYGVLLEIGAGTGGFTKGLLTNIKVNRAIVTDISPKMLSICRKRVLGESHLADDVIFATYSTGENILPSNSIDCIIGSFVLHHILDYKSFIRKSYDLLKKDGAFIFSEPCYKFHDALVLTMSEILETLIGEGDNSEVDLTRLSNWIHELHFNLKYVGDQDVLSGREDKHLFIRSEVENSAFDVGFELVEILPYGDPDAINQCLLSYLPQLDLSHIFLQKVSNLFDLYHIKYFGLIEREDAVPAYVFFFKKKMNLFSRLFKNV	not soluble
NFTHVKGSVGSNSQYVGQVDSSMAFSDKVNGRINLEYRQADSYVDHVDSNDFFIAPTIRVLPADGHTIDIDVEYAHQELVPYRGVPSKNGKPVDLPVSTYFGGTNDYQESDSLRVAVDYEWRLNDQWVWNNRAAFNHIELEQKGTRQGKVTGNEVSQTVNNFGYDPRTTTTLQSELIWETNDNQLMLGADFNQIDIDLTLASDKTLPPQNIYNPVVGPTPDPGFKPFRDNTTTTTGVYVQDVYTWGDLSVIGNVRYDSMELEQQKAGSGKEKLDDDKVSYRAGLVYRINYDTSVYASLARSWQLPYAGIYINPKLAEFFHTDLKEVGAKAYLLDNALMLNAALFQIDQEQPQTNVDGDVIDKIEVRHQGIELEARGQITKQWDISVGYSYLDAEDKATGKKPNDVSDHLFSLWSTYQLDDNWRLGGGVKYVGDRYAGNDEAVALGDYTTVDLMAAYTTGRHKIQANAYNILDEKYILGATNGTSGLNQIGYGAPAEFMLSYGYQF	not soluble
MLNEFDQYLHERYLSGKARKDRWYWNNSIQRGRSTAVRENWQWKPAVAYCRYADDFVLIVKGTKAQAEAIREECRGVLEGSLKLRLNMDKTKITHVNDGFIFLGHRIIRKRSRYGEMRVVSTIPQEKARNFAASLTALLSGNYSESKVDMAEQLNRKLKGWAMFYQFVDFKAKVFSYIDRVVFWKLAHWLARKYRTGIASLMRWWCKSPKPGQSKTWVLFGKTNHGKLSGEILYRLVGQGKKLFRWRLPEGNPYLRTETRNTYTSRFTEVAMAFASILEHHHHHH	soluble
MMHGGFAMIIDQYWGKYFGDSADSQRLAQYLAGKNREVLTTSEIFQDFQLAQLSGNYTQASLDGAGWHFDSAFQFVIDLAVLVLESKKVGRFSIARIGGPEDRFMRIDAATDELLPITMALKHYALAPEDYLFSHGIDVDDWYELGNLCEEIRAQLEA	not soluble
MVEMAATGYPVLILKEGTQRTYGREALRANILAARVLAEMLKSSLGPRGLDKMLVDAFGDITVTNDGATIVKEMEIQHPAAKLLVEVAKAQDAEVGDGTTSVVVLAGALLEKAEKLLDENLHPTIIIEGYTKAMEEALRLVDEAAVPVEVEDDSVLRRIAETTLASKFVGTGPERDKIISMVIDAIRTVAEKRPDGGYEVDLDYVKIEKKKGGSLLDSKLVRGIVLDKEVVHPAMPKRVENAKILVLDAPLEVQKPELTTKIRVTDIEKLESFLEEETRMLRDMVEKIAATGANVVITQKGIDEVAQHFLAKKGILAVRRVKRSDIEKVAKATGAKIVTSLRDLKPEYLGYAELVEERKVGEDKMVFIEGAKNPKSVTILLRGANDMLLDEAERNIKDALHGLRNILREPKIVGGGGAVEVELALKLKEFARTVGGKQQLAIEAYAEALETIPTVLAESAGMDALEALLKLRSLHSQGYKFAGVNVLEGKIEEDMTKINVYEPVLVKKQVIKSASEAAISILKIDDVIAAAPPKKKEKKGKTGEEEEEEGGGSKFEF	soluble
MKVKKWVTQDFPMVEESATVRECLHRMRQYQTNECIVKDREGHFRGVVNKEDLLDLDLDSSVFNKVSLPDFFVHEEDNITHALLLFLEHQEPYLPVVDEEMRLKGAVSLHDFLEALIEALAMDVPGIRFSVLLEDKPGELRKVVDALALSNINILSVITTRSGDGKREVLIKVDAVDEGTLIKLFESLGIKIESIEKEEGF	not soluble
MGHHHHHHMPVVDSDGDAVQLNLGGNYPLYTIQSAAIGFRGGLSTLRKDACKSYVYEAPETDRGLPVGFSASATSQPVMQLGSRYKFSFSMPVPLICDTAWSIGKSETNGGISFQPITAGDYFYLNNFSWFEARSTEETGVYKLAACSCEFCKIACPEVGSFNVNGRTLLGIGGEHFTVQFQKFD	soluble
SNRKKLQKLTDTLTKNCKHFNKFEVNCLIKLFYDLVGGVERQGLVVGLDRNAFRNILHVTFGMTDDMIMDRVFRGFDKDNDGCVNVLEWIHGLSLFLRGSLEEKMKYCFEVFDLNGDGFISKEEMFHMLKNSLLKQPSEEDPDEGIKDLVEITLKKMDHDHDGKLSFADYELAVREETLLLEAFGPCLPDPKSQMEFEAQVFKDPNEFNDM	soluble
MGSDKIHHHHHHMIRIENISKQNSHRLLFIEASAALNKGEKIGLVGPNGAGKTTLFRMITGEELPDEGQVATEKGVTIGYFNQDVGEMSGRSAVAEVMDGAGPVSTVAAELRELEGAMSDPDRMDEMDAIIERYGEVQARYEELDGYALEGRAREVLDGLSFSQEMMDGDVGKLSGGWKMRVALARILLMRPDVMLLDEPSNHLDLESLIWLESFLKNYDGALLMTSHDREFMNRIVTKIIEIDGGSLTSYSGDYGFYEGQRAQNEKQQQAQFERQQAMLAKEIKFIERFKARASHAAQVQSRVKKLDKIDRVEPPRRRQTVAFDFLPAPRSGDDVINIKNVHKAYGSRTIYQGLDFMVRRRERWCIMGINGAGKSTLLKLVAGTTEPDQGTVSIGASVKLGYFAQHAMDVLDGDSTVLQWLEESFPKAGQAPLRALAGCFGFSGDDVEKRCRVLSGGEKARLVMAAMLFDPPNLLVLDEPTNHLDLDTKEMLIKALSAYEGTMLFVSHDRHFLAALSNRVLELTPDGIHQYGGGYTEYVERTGQEAPGLHAA	not soluble
MSYYHHHHHHLESTSLYKKAGFMADQLTPHLEIPTAIKPRDGRFGSGPSKVRLEQLQTLTTTAAALFGTSHRQAPVKNLVGRVRSGLAELFSLPDGYEVILGNGGATAFWDAAAFGLIDKRSLHLTYGEFSAKFASAVSKNPFVGEPIIITSDPGSAPEPQTDPSVDVIAWAHNETSTGVAVAVRRPEGSDDALVVIDATSGAGGLPVDIAETDAYYFAPQKNFASDGGLWLAIMSPAALSRIEAIAATGRWVPDFLSLPIAVENSLKNQTYNTPAIATLALLAEQIDWLVGNGGLDWAVKRTADSSQRLYSWAQERPYTTPFVTDPGLRSQVVGTIDFVDDVDAGTVAKILRANGIVDTEPYRKLGRNQLRVAMFPAVEPDDVSALTECVDWVVERL	soluble
MEKLLQWSIANSQGDKEAMARAGQPDPKLLQQLFGGGGPDDPTLMKESMAVIMNPEVDLETKLVAFDNFEMLIENLDNANNIENLKLWEPLLDVLVQTKDEELRAAALSIIGTAVQNNLDSQNNFMKYDNGLRSLIEIASDKTKPLDVRTKAFYALSNLIRNHKDISEKFFKLNGLDCIAPVLSDNTAKPKLKMRAIALLTAYLSSVKIDENIISVLRKDGVIESTIECLSDESNLNIIDRVLSFLSHLISSGIKFNEQELHKLNEGYKHIEPLKDRLNEDDYLAVKYVL	soluble
MNYMPGTASLIEDIDKKHLVLLRDGRTLIGILRSIDQFANLVLHQTVERIHVGKKFGDIPRGIFVVRGENVVLLGEVDLDKECDQILQRVSIEEILEEQRTEQQAKQESERLKLQAVKERGLSIPKADTLDDF	soluble
